Experiments:
4H3974-bA = target: T1, 4H3974-bA; experiment: two-hybrid library CCNG1;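 further: natural log of median RNA to DNA barcode read ratio; higher means stronger binding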
T1 chain: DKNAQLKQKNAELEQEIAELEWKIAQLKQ

4H906-bA = target: T2, 4H906-bA; experiment: two-hybrid library CCNG1;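 further: natural log of median RNA to DNA barcode read ratio; higher means stronger binding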
T2 chain: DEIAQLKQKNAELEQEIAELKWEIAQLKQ

4H883-bN = target: T3, 4H883-bN; experiment: two-hybrid library CCNG1;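 further: natural log of median RNA to DNA barcode read ratio; higher means stronger binding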
T3 chain: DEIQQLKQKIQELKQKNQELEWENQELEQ

4H3817-bA = target: T4, 4H3817-bA; experiment: two-hybrid library CCNG1;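 further: natural log of median RNA to DNA barcode read ratio; higher means stronger binding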
T4 chain: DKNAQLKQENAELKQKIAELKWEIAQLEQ

4H918-bH = target: T5, 4H918-bH; experiment: two-hybrid library CCNG1
T5 chain: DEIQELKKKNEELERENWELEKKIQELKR

4H584-bA = target: T6, 4H584-bA; experiment: two-hybrid library CCNG1
T6 chain: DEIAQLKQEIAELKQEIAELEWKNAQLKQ

4H570-bA = target: T7, 4H570-bA; experiment: two-hybrid library CCNG1
T7 chain: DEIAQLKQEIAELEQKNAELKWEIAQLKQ

4H850-bA = target: T8, 4H850-bA; experiment: two-hybrid library CCNG1
T8 chain: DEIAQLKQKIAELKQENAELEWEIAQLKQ

4H3638-bA = target: T9, 4H3638-bA; experiment: two-hybrid library CCNG1
T9 chain: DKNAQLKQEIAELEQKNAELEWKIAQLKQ

4H619-bA = target: T10, 4H619-bA; experiment: two-hybrid library CCNG1
T10 chain: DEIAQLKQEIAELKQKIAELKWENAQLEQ

4H797-AA = target: T11, 4H797-AA; experiment: two-hybrid library CCmax
T11 chain: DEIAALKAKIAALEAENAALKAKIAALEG

4H881-AA = target: T12, 4H881-AA; experiment: two-hybrid library CCmax; conditions: mean of both orientations
T12 chain: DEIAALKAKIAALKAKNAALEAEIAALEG

4H780-AA = target: T13, 4H780-AA; experiment: two-hybrid library CCmax; conditions: mean of both orientations
T13 chain: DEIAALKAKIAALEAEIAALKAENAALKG

4H883-AA = target: T14, 4H883-AA; experiment: two-hybrid library CCmax; conditions: mean of both orientations
T14 chain: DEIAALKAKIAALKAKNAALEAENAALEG

4H717-AA = target: T15, 4H717-AA; experiment: two-hybrid library CCmax
T15 chain: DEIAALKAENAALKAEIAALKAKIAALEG

4H906-AA = target: T16, 4H906-AA; experiment: two-hybrid library CCmax; conditions: mean of both orientations
T16 chain: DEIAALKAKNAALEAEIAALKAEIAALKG

4H794-AA = target: T17, 4H794-AA; experiment: two-hybrid library CCmax; conditions: mean of both orientations
T17 chain: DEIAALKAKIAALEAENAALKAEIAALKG

4H918-AA = target: T18, 4H918-AA; experiment: two-hybrid library CCmax; conditions: mean of both orientations
T18 chain: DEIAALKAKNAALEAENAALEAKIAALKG

4H993-AA = target: T19, 4H993-AA; experiment: two-hybrid library CCmax; conditions: mean of both orientations
T19 chain: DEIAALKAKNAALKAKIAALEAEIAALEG

4H953-AA = target: T20, 4H953-AA; experiment: two-hybrid library CCmax; conditions: mean of both orientations
T20 chain: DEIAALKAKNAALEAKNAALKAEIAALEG

4H967-AA = target: T21, 4H967-AA; experiment: two-hybrid library CCmax; conditions: mean of both orientations
T21 chain: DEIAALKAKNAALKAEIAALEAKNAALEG

O8-bA = target: T22, O8-bA; experiment: two-hybrid library CCNG1
T22 chain: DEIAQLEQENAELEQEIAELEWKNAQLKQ

O7-bA = target: T23, O7-bA; experiment: two-hybrid library CCNG1
T23 chain: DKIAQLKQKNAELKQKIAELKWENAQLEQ

O9-bA = target: T24, O9-bA; experiment: two-hybrid library CCNG1
T24 chain: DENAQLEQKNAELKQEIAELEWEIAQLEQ

4H968-bA = target: T25, 4H968-bA; experiment: two-hybrid library CCNG1
T25 chain: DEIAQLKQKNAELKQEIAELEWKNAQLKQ

4H967-bA = target: T26, 4H967-bA; experiment: two-hybrid library CCNG1
T26 chain: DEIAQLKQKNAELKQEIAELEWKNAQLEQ

4H953-bA = target: T27, 4H953-bA; experiment: two-hybrid library CCNG1
T27 chain: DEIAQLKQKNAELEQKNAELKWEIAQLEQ

4H930-AA = target: T28, 4H930-AA; experiment: two-hybrid library CCmax; conditions: mean of both orientations
T28 chain: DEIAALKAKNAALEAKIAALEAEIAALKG

4H891-AA = target: T29, 4H891-AA; experiment: two-hybrid library CCmax; conditions: mean of both orientations
T29 chain: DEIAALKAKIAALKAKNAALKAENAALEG

4H909-AA = target: T30, 4H909-AA; experiment: two-hybrid library CCmax; conditions: mean of both orientations
T30 chain: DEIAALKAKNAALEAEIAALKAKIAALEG

4H850-AA = target: T31, 4H850-AA; experiment: two-hybrid library CCmax; conditions: mean of both orientations
T31 chain: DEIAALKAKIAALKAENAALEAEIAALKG

4H94-AA = target: T32, 4H94-AA; experiment: two-hybrid library CCmax; conditions: mean of both orientations
T32 chain: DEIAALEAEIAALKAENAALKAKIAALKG

DKNAQLKQEIAELEQKNAELEWKIAQLKQ [4H3638-bA] gave an interaction score (4H3974-bA) of 0.0825, an interaction score (4H906-bA) of -1.97 and an interaction score (4H883-bN) of -2.2. For the same binder, the interaction score (4H3817-bA) was -0.0786, the interaction score (4H918-bH) was 0.343 and the interaction score (4H584-bA) was -1.67. For the same binder, the interaction score (4H570-bA) was -0.717, the interaction score (4H850-bA) was 0.728 and the interaction score (4H3638-bA) was 0.115. It also gave an interaction score (4H619-bA) of -0.0681.

Binder DEIAALKAENAALKAEIAALKAKIAALEG [4H717-AA] has an interaction score (4H797-AA) of -1.4, an interaction score (4H881-AA) of -1.15 and an interaction score (4H780-AA) of -1.38. The interaction score (4H883-AA) was -1.82, the interaction score (4H717-AA) was 1.89 and the interaction score (4H906-AA) was -1.19. It also gave an interaction score (4H794-AA) of -1.37, an interaction score (4H918-AA) of -1.34 and an interaction score (4H993-AA) of 0.0522. The interaction score (4H953-AA) was -1.87 and the interaction score (4H967-AA) was -0.559.

Binder DKNAQLKQKIAELKQENAELEWKIAQLKQ [O6-bA] has an interaction score (O8-bA) of 1.39, an interaction score (O7-bA) of 0.795 and an interaction score (O9-bA) of 0.339.

DEIAQLKQKNAELEQKNAELKWEIAQLEQ [4H953-bA] showed an interaction score (4H968-bA) of -1.33, an interaction score (4H967-bA) of -1.11 and an interaction score (4H953-bA) of -0.648. It also gave an interaction score (O7-bA) of -0.716.

DEIAALKAKIAALEAENAALKAKIAALEG [4H797-AA] was tested, and the interaction score (4H797-AA) was 1.76, the interaction score (4H930-AA) was -1.72 and the interaction score (4H891-AA) was -1.35. The interaction score (4H883-AA) was -1.4, the interaction score (4H909-AA) was -0.899 and the interaction score (4H918-AA) was -0.389. The interaction score (4H953-AA) was -0.955, the interaction score (4H967-AA) was -1.81 and the interaction score (4H850-AA) was 1.16. The interaction score (4H94-AA) was 0.948.

— publication PMC10397247
